Laboratory results published in patent US20230357447A1 (JANUX THERAPEUTICS, published 2023).

How the values were obtained:
[1] = biological target: T1, Anti-CD28 scFv (VH-linker 1-VL) (biotinylated (site not stated)); assay: phage binding ELISA on captured biotinylated anti-CD28 scFv;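 note: crude clonal phage supernatants applied to the wells, bound phage read out with an HRP-conjugated anti-M13 antibody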
T1 construct: biotinylated and captured on neutravidin coated plates in the phage ELISA

[2] = biological target: T1, Anti-CD28 scFv (VH-linker 1-VL); assay: phage binding ELISA on captured anti-CD28 scFv, wells pre-incubated with soluble CD28 (competitor);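 note: crude clonal phage supernatants added without washing, bound phage detected by HRP-conjugated anti-M13 antibody, control wells held blocking buffer alone instead of CD28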
Description: Clonal phage were harvested as crude supernatants and screened via standard enzyme linked immunosorbent assays (ELISAs). […] Prior to the addition of clonal phage, wells were incubated with blocking buffer and CD28 soluble protein or blocking buffer alone. Without washing or aspirating, clonal phage supernatants were then added to the wells and incubated for a short time. Wells were then washed followed by detection of bound phage using a horse radish peroxidase conjugated anti-M13 antibody.

[3] = biological target: T2, anti-CD28 scFv (VH-linker 1-VL) (biotinylated (site not stated)); assay: phage ELISA; scFv wells pre-incubated with soluble CD28 (competitor);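 note: crude clonal phage supernatants added to wells pretreated with soluble CD28 in blocking buffer, bound phage read via HRP-linked anti-M13 antibody, reference wells got blocking buffer only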
T2 construct: Captured as biotinylated scFv on neutravidin coated plates in the phage ELISA
T2 sequence (scFv, as listed by the source): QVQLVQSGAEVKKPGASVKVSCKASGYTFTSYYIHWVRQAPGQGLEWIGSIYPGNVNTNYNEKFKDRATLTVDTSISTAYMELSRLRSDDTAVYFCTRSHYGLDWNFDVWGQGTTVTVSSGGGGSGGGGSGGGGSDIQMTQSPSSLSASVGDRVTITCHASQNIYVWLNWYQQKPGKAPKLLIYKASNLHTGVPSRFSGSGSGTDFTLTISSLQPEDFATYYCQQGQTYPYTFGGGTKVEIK

T1 sequence (scFv, as listed by the source): as above

MDWCPAYLWDECFA [Phage-325]
CD28 scFv signal [1]: 2.17
CD28 scFv signal in presence of CD28 [2]: 0.163

MSWCPIDLWSECFA [Phage-340]
CD28 scFv signal [1]: 1.99
CD28 scFv signal in presence of CD28 [2]: 0.148

MDWCPSDMWANCFF [Phage-389]
CD28 scFv signal in presence of CD28 [2]: 0.316

MDWCPRTLWDQCFF [Phage-339]
CD28 scFv signal [1]: 1.99
CD28 scFv signal in presence of CD28 [2]: 0.314

MDWCPRYLWDECFS [Phage-334]
CD28 scFv signal [1]: 2.06
CD28 scFv signal in presence of CD28 [2]: 0.164

VDWCPAHMWNECYN [Phage-419]
CD28 scFv signal [1]: 0.664

MDWCPTYLWNVCFA [Phage-323]
CD28 scFv signal [1]: 2.21
CD28 scFv signal in presence of CD28 [2]: 0.132

MDWCPPHLWHECFF [Phage-358]
CD28 scFv signal [1]: 1.45

LHWCPTSMWTYCYY [Phage-392]
CD28 scFv signal in presence of CD28 [2]: 2.46

MDWCPRHLWHACFS [Phage-346]
CD28 scFv signal [1]: 1.83
CD28 scFv signal in presence of CD28 [2]: 0.167

MDWCPRHLWYECFS [Phage-324]
CD28 scFv signal [1]: 2.17
CD28 scFv signal in presence of CD28 [2]: 0.163

MDWCPRDLWNWCFN [Phage-336]
CD28 scFv signal [1]: 2.03
CD28 scFv signal in presence of CD28 [2]: 0.39

MDWCPRALWNVCFA [Phage-329]
CD28 scFv signal [1]: 2.14
CD28 scFv signal in presence of CD28 [2]: 0.249

MFWCPITLWNECFN [Phage-326]
CD28 scFv signal [1]: 2.15
CD28 scFv signal in presence of CD28 [2]: 0.143

MDWCPRYLWNVCFA (on phage (pIII fusion)) [Phage-289 clonal phage peptide]
CD28 scFv signal in presence of CD28 [3]: 0.28

MDWCPKPLWHVCFA [Phage-337]
CD28 scFv signal [1]: 2.02
CD28 scFv signal in presence of CD28 [2]: 0.152

MDWCPSNMWNECFF [Phage-416]
CD28 scFv signal [1]: 0.983

MDWCPRNLWHECFA [Phage-342]
CD28 scFv signal [1]: 1.97
CD28 scFv signal in presence of CD28 [2]: 0.175

MDWCPMNLWHECFA [Phage-351]
CD28 scFv signal [1]: 1.74
CD28 scFv signal in presence of CD28 [2]: 0.16

MDWCPRPLWHECFA [Phage-359]
CD28 scFv signal [1]: 1.44
CD28 scFv signal in presence of CD28 [2]: 0.138

IDWCPRALWDACLA [Phage-332]
CD28 scFv signal [1]: 2.1
CD28 scFv signal in presence of CD28 [2]: 0.164

MDWCPLFLWDQCFN [Phage-347]
CD28 scFv signal [1]: 1.82
CD28 scFv signal in presence of CD28 [2]: 0.264

IDWCPLHLWHECYH [Phage-353]
CD28 scFv signal [1]: 1.69
CD28 scFv signal in presence of CD28 [2]: 0.182

MDWCPRFLWDYCFA [Phage-335]
CD28 scFv signal [1]: 2.03
CD28 scFv signal in presence of CD28 [2]: 0.207

MDFCPRFLWHECFN [Phage-345]
CD28 scFv signal [1]: 1.91
CD28 scFv signal in presence of CD28 [2]: 0.225

MDWCPRHLWDECFN [Phage-341]
CD28 scFv signal [1]: 1.98
CD28 scFv signal in presence of CD28 [2]: 0.268

MDWCPRHLWIECFN [Phage-322]
CD28 scFv signal [1]: 2.21
CD28 scFv signal in presence of CD28 [2]: 0.376

MDWCPRHLWDECFY [Phage-331]
CD28 scFv signal [1]: 2.13
CD28 scFv signal in presence of CD28 [2]: 0.146

MDWCPRYLWLECFN [Phage-354]
CD28 scFv signal [1]: 1.69
CD28 scFv signal in presence of CD28 [2]: 0.368

MDWCPRHLWLECFN [Phage-387]
CD28 scFv signal [1]: 0.066
CD28 scFv signal in presence of CD28 [2]: 0.074

MDWCPRALWDHCFN [Phage-328]
CD28 scFv signal [1]: 2.15
CD28 scFv signal in presence of CD28 [2]: 0.293

MDWCPWFLWNECFN [Phage-350]
CD28 scFv signal [1]: 1.77
CD28 scFv signal in presence of CD28 [2]: 0.279

LDWCPRHLWALCFN [Phage-349]
CD28 scFv signal [1]: 1.78
CD28 scFv signal in presence of CD28 [2]: 0.24

MDWCPRFLWDVCFN [Phage-330]
CD28 scFv signal [1]: 2.14
CD28 scFv signal in presence of CD28 [2]: 0.309

MAWCPWYLWDECFN [Phage-348]
CD28 scFv signal [1]: 1.81
CD28 scFv signal in presence of CD28 [2]: 0.267

MDWCPRHLWVHCFS [Phage-344]
CD28 scFv signal [1]: 1.91
CD28 scFv signal in presence of CD28 [2]: 0.173

MDWCPTDLWHECFA [Phage-333]
CD28 scFv signal [1]: 2.07
CD28 scFv signal in presence of CD28 [2]: 0.154

MDWCPRFLWNECFY [Phage-338]
CD28 scFv signal [1]: 2
CD28 scFv signal in presence of CD28 [2]: 0.287

IDWCPMHMWDFCYN [Phage-390]
CD28 scFv signal in presence of CD28 [2]: 0.232

MDWCPIHLWYECFN [Phage-352]
CD28 scFv signal [1]: 1.73
CD28 scFv signal in presence of CD28 [2]: 0.203

MHWCPRDLWHVCFN [Phage-327]
CD28 scFv signal [1]: 2.15
CD28 scFv signal in presence of CD28 [2]: 0.15

MDWCPRDLWTQCFF [Phage-343]
CD28 scFv signal [1]: 1.93
CD28 scFv signal in presence of CD28 [2]: 0.119
